Assay results as given in the RNAGym collection of RNA variant scans (doi:10.1073/pnas.2313332121).

B1: TPR t1 (parent)
chain: GACCAAUCUGCCCUCAGAGCUCGAGAACAUCUUCGGAUGCAGAGGAGGCAGGCUUCGGUGGCGCGAUAGCGCCAACGUCCUCAACCUCCAAUGCAUCCCACCACAUGAUGAUGCCUGAAGAGCCUUGGUUUUUUG

Variants of: B1
Assay: polymerase ribozyme fitness, log enrichment relative to wild type (log ratio); higher = more active; in vitro selection for triplet polymerase activity
How it was run: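 Only genotypes with ≥10 input reads and ≥1 read per output were kept after Illumina sequencing of input and output libraries. These libraries were PCR-built, transcribed mutants of each subunit of a heterodimeric triplet polymerase ribozyme, each put through one triplicate in vitro selection round with frozen incubation at −7 °C, gel excision of extended constructs, streptavidin-bead capture and RT-PCR. Fitness is a logarithmic ratio of genotype enrichment to wild-type enrichment, from inverse-variance-weighted replicate averages, with the logarithm in base 2.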

Variant | polymerase ribozyme fitness (log ratio)
A16G U112A A119G | 2.06
A16G A50U U81G | -2.01
A16U C62U | -1.92
C15G G48U A50G G63C U106A U109C | -6.17
C15A A90G G93A A103U G120U | -6.55
C15U A91C | -2.75
C15U G69C | -2.64
C15A A41U A43U G61A G113A G122A | -5.83
G17A G42U U129A | -4.5
C15G C40A | -3.83
C15G C40U | -2.91
C15U G58A | -1.84
G17C G61A C82A | -4.03
A16U C22U C62U U78C U92G G120A C123A | -6.53
A16U A37G G113A | -4.83
C15G A29G C88G U129A | -3.95
C15U A16C | -2.44
C15U C62U U112G | -0.275
G17C C79U | -4.69
G17C G35A C98U G120A | -5.26
A16U G107U C124G | -4.06

Variant | polymerase ribozyme fitness (log ratio)
C15A G127A | -3.63
C15U U33G G61U U87A U112C | -4.85
C15A G39A G69A U87G U112G | -4.24
A16U G113U | -4.23
G17A G128C | -5.29
C15U A41U G48U | -3.71
A16U G60A C62U U112C | -0.401
A16U U21G C114U | -4.99
G17C G36A C114G G127A | -5.69
A16G G113A | -2.04
A16G G113C | -3.85
C15G G17U C40U | -4.85
A16G C94U | -1.93
C15G G61C A90G U96A | -6.02
A16G C94A A95U | -4.15
G17A G52A A118G | -4.15
G17A C20G | -4.82
G17A C20U | -3.63
C15A C76U A83U C86A | -3.37
C15G G25U A37U G69U G120C | -7.24
A16G C28U U54G A121G | -0.979

Variant | polymerase ribozyme fitness (log ratio)
C15A C40U U87C G93C | -3.02
G17C C85G C86U A91U U112G | -6.74
G17A C62A U87C | -6.24
G17A A41C G117U | -3.91
C15G U132C | -2.23
C15U C115U | -1.42
A16G U32A A50C C88U C123G U125A | -3.77
G17C C40U A43U U130G | -3.78
A16G C53G A84C C88A C101G | -4.3
A16G U92C C102A | -5.14
A16G G35A A37G A84U A121G | -3.58
A16C C40U G52A U59G U112A | -1.53
C15G C49G U106C C124U | -2.11
G17A U38A U59G C115U G117U | -3.04
C15U A37G C53U U116C | -2.52
C15U C86U | -1.61
G17A U21A G44C A46C C73G | -5.53
A16G G51C C82A C124G | -3.19
C15A G69U G77U G122A C123A | -1.41
C15A G71U | -2.58
C15G C20U C73U U78G A111G | -6.71

Variant | polymerase ribozyme fitness (log ratio)
A16U G17A C20A C49A C73U | -4.77
C15G C49G C89U C115G | -4.39
C15U C22A U54A C124A | -3.89
C15G A27G | -4.15
C15U G25A | -4.87
C15A C40A C56G | -6.31
C15G G120A | -1.53
C15U C20A U81G U112G | -6.15
C15U A83C A91G A111G | -2.96
C15A U92A U132A | -4.82
G17C G61U | -3.71
C15U G51A C72G A121C | -2.34
C15A G60U U131A | -1.3
C15A G45A C89G G93C | -4.59
C15U C102U | -3.1
C15U G52A U59A A118U | -2.24
G17C A121G U133A | -1.73
C15A C53A G77A C101G G120A C124A | -1.12
C15U C56U G69U C102A | -5.73
C15A C20U C73A G93A | -3.83
G17C G19U G63U A91C C124A | -5.7
